In doi:10.1101/2022.08.24.505195 (bioRxiv, 2022):

Biological target: the molecule itself
Experiment: SEC

B1: EBOV VP40 with 6xHis tag (pET46-VP40-6xHis), recombinant dimer (natural protein)
chain: MRRVILPTAPPEYMEAIYPVRSNSTIARGGNSNTGFLTPESVNGDTPSNPLRPIADDTIDHASHTPGSVSSAFILEAMVNVISGPKVLMKQIPIWLPLGVADQKTYSFDSTTAAIMLASYTITHFGKATNPLVRVNRLGPGIPDHPLRLLRIGNQAFLQEFVLPPVQLPQYFTFDLTALKLITQPLPAATWTDDTPTGSNGALRPGISFHPKLRPILLPNKSGKKGNSADLTSPEKIQAIMTSLQDFKIVPIDPTKNIMGIEVPETLVHKLTGKKVTSKNGQPIIPVLLPKYIGLDPVAPGDLTMVITQDCDTCHSPASLPAVIEK
stoichiometry N: 2
